The results in this text go back to the Human Domainome abundance scans (Beltran et al. 2025).

B1: Peroxisome proliferator-activated receptor delta, residues 71 to 145; numbered along this chain, Q03181 (parent)
chain: NMECRVCGDKASGFHYGVHACEGCKGFFRRTIRMKLEYEKCERSCKIQKKNRNKCQYCRFQKCLALGMSHNAIRF

± gives the uncertainty stated by the source.

The variants in this series derive from B1. The series is described as follows: abundance fitness (aPCA) (normalised: wild type 0, dead -1); higher = more abundant; growth selection in yeast, the domain comes from the species named. The conditions noted are these: Homo sapiens.
NMECRVCGDKASGFHYGVHACEGCKGFFRRTIRMKLEYEKCERSCKIQKKNRNKCQYCRFQKCLALGMSHNAFRF [I73F]: the abundance fitness is -0.094 ± 0.069.
Next, NMECRVCGDKASGFHYGVHACEGCKGFFRRTIRMKLEYEKCERSCKCQKKNRNKCQYCRFQKCLALGMSHNAIRF [I47C]: -0.51 ± 0.062; NMECRVCGDKASGFHYGVHACEGCKGFFRRTIRMKSEYEKCERSCKIQKKNRNKCQYCRFQKCLALGMSHNAIRF [L36S]: -0.235 ± 0.052.
For NMECRVCGDKASGFHYGVHACEGCKGFFRRTIRMKKEYEKCERSCKIQKKNRNKCQYCRFQKCLALGMSHNAIRF [L36K] the value was -0.165 ± 0.075; for NMECRVCGDKASGFHYGVHACEGCKGFFRRTIRMKLEYEKCERSGKIQKKNRNKCQYCRFQKCLALGMSHNAIRF [C45G], -0.787 ± 0.054.
For NMECRVCGDKASGFHYGVHACEGCKGFFRRTQRMKLEYEKCERSCKIQKKNRNKCQYCRFQKCLALGMSHNAIRF [I32Q] the value was -0.365 ± 0.093; for NMECRVCGDKASGFHYGVHACEGCKGFFRRTSRMKLEYEKCERSCKIQKKNRNKCQYCRFQKCLALGMSHNAIRF [I32S], -0.464 ± 0.067; for NMECRVCGDKASGFHYGVHACEGCKGFFRRTIRMKLEYEKCERSCKIQKKNRQKCQYCRFQKCLALGMSHNAIRF [N53Q], -0.152 ± 0.064.
With NMECRVCGDKASGFHYGVHACEGCKGFFRRTIRMKLEYEKCERSCKIQKKNRGKCQYCRFQKCLALGMSHNAIRF [N53G], the abundance fitness was -0.033 ± 0.035.
With NMECRVCGDKASGFHYGVHACEGCKGFFRRTIRMKLEYEKCERSCKIQKKNRRKCQYCRFQKCLALGMSHNAIRF [N53R], the abundance fitness is -0.185 ± 0.037.
Next, NMECRVCGRKASGFHYGVHACEGCKGFFRRTIRMKLEYEKCERSCKIQKKNRNKCQYCRFQKCLALGMSHNAIRF [D9R]: -0.348 ± 0.045.
For YMECRVCGDKASGFHYGVHACEGCKGFFRRTIRMKLEYEKCERSCKIQKKNRNKCQYCRFQKCLALGMSHNAIRF [N1Y] the value was -0.266 ± 0.15; for NMECRVCGDKASGFHYGVHACEGCKGFFRRTIRMKLEYEKCERSCKIQKKNRNKCQYCRFQKCLPLGMSHNAIRF [A65P], -0.819 ± 0.14; for NMECRVCGDKASGFMYGVHACEGCKGFFRRTIRMKLEYEKCERSCKIQKKNRNKCQYCRFQKCLALGMSHNAIRF [H15M], -0.125 ± 0.05.
Next, NMECRVCGDKASGFHYGVHMCEGCKGFFRRTIRMKLEYEKCERSCKIQKKNRNKCQYCRFQKCLALGMSHNAIRF [A20M]: -0.456 ± 0.13; NMECRVCGDKASGFHYGVHACEGCKGFFRRTIRMKLEYEKCERSCKIQKKNRNKCQYCRFQKCLAAGMSHNAIRF [L66A]: -0.077 ± 0.048; NMECRVCGDKASGFHYGVHACEGCKNFFRRTIRMKLEYEKCERSCKIQKKNRNKCQYCRFQKCLALGMSHNAIRF [G26N]: 0.055 ± 0.067.
On to NMECRVCGDKASGFHYGVHACEGCKGFFRRTIRMKLEYIKCERSCKIQKKNRNKCQYCRFQKCLALGMSHNAIRF [E39I], for which the abundance fitness is -0.191 ± 0.077.
For NMECPVCGDKASGFHYGVHACEGCKGFFRRTIRMKLEYEKCERSCKIQKKNRNKCQYCRFQKCLALGMSHNAIRF [R5P], the abundance fitness was -0.376 ± 0.055.
Next, NMECRVCGDKASGFHYGVHACEGCKGFFRRTIRMKLEYEKCERSCKIQKKNRNKCQYCRFQKCLALGISHNAIRF [M68I]: -0.703 ± 0.15; NMECRVCGDKASGFHYGVHACEDCKGFFRRTIRMKLEYEKCERSCKIQKKNRNKCQYCRFQKCLALGMSHNAIRF [G23D]: 0.192 ± 0.054.
For NMECRVCGDKASGFHYGVHACEGCKGFFRRTIRMKLEYEKCERSCKIQKKNRNKCQYCREQKCLALGMSHNAIRF [F60E] the value was -1.03 ± 0.17; for NMECRVCGDKASGFHYGVHACEGCKGFFRRTIRMKLEYEKCERSCKIQKKNRNKCQHCRFQKCLALGMSHNAIRF [Y57H], -0.177 ± 0.12.
For NMECRVCGDKASGFHYGVHACEGCKGFFRRTIRMKLEYEKCERSCKIQKKNRNKCQCCRFQKCLALGMSHNAIRF [Y57C] the value was -0.305 ± 0.13; for NMECRVCGDKASGFHYGVHACEGCKGFFRRTIRMKLEYEKCERSCKIQTKNRNKCQYCRFQKCLALGMSHNAIRF [K49T], 0.023 ± 0.18.
As to NMECRVCGDKASGFHYGVHACEGCKGFFRRTIRMKLEYEKCERSCKIQKKNRNKCQYCRFQKCLALTMSHNAIRF [G67T], the abundance fitness is -0.687 ± 0.12.
In the case of NMECRVCGDKASGFHYGVHACEGCKGFFRRTIRMKLEYEKCERSCKIQKKNRNKCQYCRFQKCLALNMSHNAIRF [G67N], the abundance fitness was -0.36 ± 0.1.
As to NMECRVCGDKASGFHYGVHACEGCKGFFRRTIRMKLEYEKCERSCKIQKKNRNKCQYCRFQKCLALGMCHNAIRF [S69C], the abundance fitness was -0.138 ± 0.063.
For the variant NMECRVCGDKASGFHYGVHACEGCKGFFRRTIRMKLEYEKCERSCKIQKKNRNKCQYCRFQKCLALGMKHNAIRF [S69K], the abundance fitness was 0.023 ± 0.051.
Next, NMECRVCGDKASGFHYGVHACEGCKGFFCRTIRMKLEYEKCERSCKIQKKNRNKCQYCRFQKCLALGMSHNAIRF [R29C]: -0.009 ± 0.064.
In the case of NMECRVCGDKASGFHYGVHACEGCKGFFKRTIRMKLEYEKCERSCKIQKKNRNKCQYCRFQKCLALGMSHNAIRF [R29K], the abundance fitness was 0.026 ± 0.06.
Regarding NMECRVCGDKASFFHYGVHACEGCKGFFRRTIRMKLEYEKCERSCKIQKKNRNKCQYCRFQKCLALGMSHNAIRF [G13F], the abundance fitness was -0.838 ± 0.17.
For NMECRVCGDKASGFHYGVHACEGCKGFFRRTIRMKLEYEMCERSCKIQKKNRNKCQYCRFQKCLALGMSHNAIRF [K40M] the value was -0.09 ± 0.053; for NMECRVNGDKASGFHYGVHACEGCKGFFRRTIRMKLEYEKCERSCKIQKKNRNKCQYCRFQKCLALGMSHNAIRF [C7N], -0.412 ± 0.11; for NMECRVTGDKASGFHYGVHACEGCKGFFRRTIRMKLEYEKCERSCKIQKKNRNKCQYCRFQKCLALGMSHNAIRF [C7T], -0.862 ± 0.13.
Next, NMECRVCGDKASGFHYGVHACGGCKGFFRRTIRMKLEYEKCERSCKIQKKNRNKCQYCRFQKCLALGMSHNAIRF [E22G]: -0.341 ± 0.05; NMECRVCGDKASGFHYGVHACYGCKGFFRRTIRMKLEYEKCERSCKIQKKNRNKCQYCRFQKCLALGMSHNAIRF [E22Y]: -0.389 ± 0.099.
